Reference: US20180282403A1, “AGENTS FOR REDUCING THE ACTIVITY OF GDF15” (GENAGON THERAPEUTICS AB, priority 2015, published 2018)

B2: pyroglutamylated RFamide Peptide Receptor (QRFPR) (receptor)
chain: MQALNITPEQFSRLLRDHNLTREQFIALYRLRPLVYTPELPGRAKLALVLTGVLIFALALFGNALVFYVVTRSKAMRTVTNIFICSLALSDLLITFFCIPVTMLQNISDNWLGGAFICKMVPFVQSTAVVTEILTMTCIAVERHQGLVHPFKMKWQYTNRRAFTMLGVVWLVAVIVGSPMWHVQQLEIKYDFLYEKEHICCLEEWTSPVHQKIYTTFILVILFLLPLMVMLILYSKIGYELWIKKRVGDGSVLRTIHGKEMSKIARKKKRAVIMMVTVVALFAVCWAPFHVVHMMIEYSNFEKEYDDVTIKMIFAIVQIIGFSNSICNPIVYAFMNENFKKNVLSAVCYCIVNKTFSPAQRHGNSGITMMRKKAKFSLRENPVEETKGEAFSDGNIEVKLCEQTEEKKKLKRHLALFRSELAENSPLDSGH
notes: Endogenous receptor of MCF-7 / U2OS cells and human tissues; also called GPR103; orexigenic neuropeptide QRFP receptor

What was measured:
[1] = molecular target: T1, GDF15 (Homo sapiens, UniProt Q99988); test: GST-pulldowns of GDF15 with GST-fusion QRFPR and CLPTM1 fragments; type: binding; conditions: equal amounts of GST-fusion protein and GDF15, 4 hrs at 4° C., extensive washes incl. high salt; FIG. 8B
T1 construct: purchased Abcam
T1 sequence (Q99988 197-308 limits assumed): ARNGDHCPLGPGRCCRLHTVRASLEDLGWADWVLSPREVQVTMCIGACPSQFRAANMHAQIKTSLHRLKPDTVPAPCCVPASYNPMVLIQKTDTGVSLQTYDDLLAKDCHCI
Protocol: We then assembled the GDF15 binding motifs from QRFPR and CLPTM1 using synthetic hybridized oligonucleotides corresponding to the motifs from either extracellular domain 3, 4 (QRFPR) or CLPTM1. The oligonucleotides were inserted in a pGEX4T1 backbone, expressed in BL21 DE3pLys bacteria and purified. The correct sequences were confirmed by Sanger sequencing.
We then incubated the purified GST-fusion proteins with equal amounts of GDF15 and subjected the analytes to extensive washes including high salt buffers.
In short, selected fragments of the receptors were constructed from synthetic oligomers (ultramers, IDT technologies), the flanking ends digested by restriction enzymes, and inserted in a pGEX 4T-1 vector (Pharmacia Biotech). The constructs were cloned in a DH5 a library efficiency bacteria (Invitrogen). The correct clones were identified by analytical restriction digest run on a 2% agarose gel, and validated by Sanger sequencing at the Uppsala sequencing centre.
The validated clones were used to transform BL21pLYs bacteria. […]
The material was denatured by boiling in SDS loading dye supplemented with DDT for 5 min, then run on a 12% acrylamide gel (120 V for 70 min) and analysed by ECL and CCD camera (Biorad). […]

[2] = molecular target: T2, QRFPR (Homo sapiens, UniProt Q96P65); test: ACTRIIB assay: in situ PLA detection of ACTRIIB at the cell surface after QRFPR agonist P518; type: cell-based; conditions: P518 + peptide in 125 molar excess, FIG. 10D-F
T2 construct: endogenous in cells
T2 sequence (Q96P65 1-431): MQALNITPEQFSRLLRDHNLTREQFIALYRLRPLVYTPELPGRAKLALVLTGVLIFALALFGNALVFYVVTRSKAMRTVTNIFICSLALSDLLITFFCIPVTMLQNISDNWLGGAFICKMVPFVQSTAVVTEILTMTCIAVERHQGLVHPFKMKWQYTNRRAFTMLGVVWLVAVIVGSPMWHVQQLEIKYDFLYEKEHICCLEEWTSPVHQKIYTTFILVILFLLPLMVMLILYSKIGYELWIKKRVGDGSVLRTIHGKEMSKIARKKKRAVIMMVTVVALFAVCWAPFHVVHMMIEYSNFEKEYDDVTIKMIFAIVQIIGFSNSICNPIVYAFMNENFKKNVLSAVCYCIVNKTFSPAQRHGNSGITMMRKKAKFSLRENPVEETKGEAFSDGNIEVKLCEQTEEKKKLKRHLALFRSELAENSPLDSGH
Source text: (§1) A-C) In situ detection of QRFPR at the cell surface. A) Negative control cells with no added GDF15. B) Cells after exposure to GDF15. C) Cells after exposure to GDF15+ synthetic peptide GEKEYDDVTIK derived from extracellular domain 4 of QRFPR. […] D-F) In situ PLA detection of ACTRIIB at the cell surface. D) Control cells with no added P518. E) Cells after exposure to P518. F) Cells after exposure to P518+ synthetic peptide GEKEYDDVTIK derived from extracellular domain 4 of QRFPR in 125 molar excess. The ability of P518 to increase the level of ACTRIIB at the cell surface was not affected by the peptide.
The effect of the QRFPR agonist p518 was measured. In short, p518/QRFP-26 was purchased from Phoenix Peptides, CA and processed according to the manufacturer's instructions. Cells were serum-starved prior to P518 stimulation overnight.
P518 was mixed with either PBS or QRFPR receptor fragment dissolved in PBS prior to stimulation of cells.

[3] = test system: QRFPR; test: In situ PLA detection of RAB11-QRFPR double positive endosomes in MCF7 cells; type: cell-based; conditions: MCF7 cells; GDF15 pre-incubated with receptor fragment; FIG. 9A-D
Source text: The RAB11 protein is a marker for recycling endosomes back to the cell surface, and the RAB11 pathway is also involved in exosome assembly (Savina et al., 2005; Savina et al., 2002). RAB11 was thus thought to be a likely candidate to be involved in QRFPR reduction on the cell surface induced by GDF15
An in situ PLA assay was developed to detect the proximity of RAB11 and QRFPR. In the absence of GDF15, only a low signal is observed (FIGS. 5A and 5C).
(§2) We choose to use this assay as a way to investigate if the activity of GDF15 could be inhibited by various agents. […] GDF15-induced formation of RAB11/QRFPR endosomes is inhibited by QRFPR peptides (FIG. 9A-D). Equal amounts of a mastermix of GDF15 was aliquoted and pre-incubated in PBS with the various receptor fragment before addition to cells. Sequentially, the cells were treated with either PBS, GDF15 or GDF15/QRFPR-derived peptide mixes.

[4] = test system: QRFPR; test: In situ PLA detection of QRFPR at the cell surface in U2OS osteosarcoma cells; type: cell-based; conditions: U2OS osteosarcoma cells; GDF15 + peptide; FIG. 9E
Source text: A-D) In situ PLA detection of the Rab11-QRFPR complex following exposure of MCF7 cells to GDF15. A) +Ctrl peptide. B) +QRFPR extracellular N-terminal peptide. C-D) +QRFPR extracellular loop3 (domain 4) peptide. The level of the Rab11-QRFPR complex is reduced by the peptide from extracellular loop3 of QRFPR. E) in situ PLA detection of QRFPR in U2OS osteosarcoma cells.
as §2

[5] = test system: QRFPR; test: In situ detection of QRFPR at the cell surface after GDF15 with or without peptide (FIG. 10A-C); type: cell-based; conditions: cells exposed to GDF15 + synthetic peptide
Source text: as §1
FIGS. 10A-10C confirm that GDF15 reduces the level of QRFPR at the cell surface, and that this reduction may be reversed by a peptide derived from extracellular loop 3 (extracellular domain 4) of QRFPR.

[6] = molecular target: T3, Cleft Lip and Palate Transmembrane protein 1 (CLPTM1) (human, UniProt O96005 2-669); test: in situ PLA on tissue micro array
T3 construct: Endogenous receptor of NK-92 cells, CD14+ cells and human tissues
T3 sequence: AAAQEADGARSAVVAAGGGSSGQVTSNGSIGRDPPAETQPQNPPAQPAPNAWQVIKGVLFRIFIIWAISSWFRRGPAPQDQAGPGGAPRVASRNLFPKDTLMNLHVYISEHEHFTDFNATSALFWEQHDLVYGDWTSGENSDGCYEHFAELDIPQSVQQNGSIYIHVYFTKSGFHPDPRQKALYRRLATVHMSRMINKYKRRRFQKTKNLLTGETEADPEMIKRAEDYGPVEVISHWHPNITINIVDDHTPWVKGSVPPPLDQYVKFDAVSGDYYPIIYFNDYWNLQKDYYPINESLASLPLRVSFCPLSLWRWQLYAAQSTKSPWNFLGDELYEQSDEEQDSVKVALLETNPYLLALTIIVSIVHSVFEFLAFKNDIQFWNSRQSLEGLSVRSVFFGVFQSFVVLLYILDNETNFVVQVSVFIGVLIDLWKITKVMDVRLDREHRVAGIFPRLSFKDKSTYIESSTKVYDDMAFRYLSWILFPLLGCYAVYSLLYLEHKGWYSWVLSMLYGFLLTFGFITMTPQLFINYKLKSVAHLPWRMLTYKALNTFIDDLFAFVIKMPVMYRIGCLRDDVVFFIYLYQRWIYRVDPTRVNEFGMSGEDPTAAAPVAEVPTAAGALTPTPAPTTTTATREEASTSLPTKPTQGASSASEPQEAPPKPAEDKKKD

[7] = molecular target: B2; test: in situ PLA on tissue micro array
[8] = molecular target: T4, ACTRIIB (UniProt Q13705 19-512, limits assumed); test: in situ PLA on serum-starved MCF7 cells
T4 construct: whole, on cells; also called activin type II receptor B
T4 sequence (Q13705 19-512 limits assumed): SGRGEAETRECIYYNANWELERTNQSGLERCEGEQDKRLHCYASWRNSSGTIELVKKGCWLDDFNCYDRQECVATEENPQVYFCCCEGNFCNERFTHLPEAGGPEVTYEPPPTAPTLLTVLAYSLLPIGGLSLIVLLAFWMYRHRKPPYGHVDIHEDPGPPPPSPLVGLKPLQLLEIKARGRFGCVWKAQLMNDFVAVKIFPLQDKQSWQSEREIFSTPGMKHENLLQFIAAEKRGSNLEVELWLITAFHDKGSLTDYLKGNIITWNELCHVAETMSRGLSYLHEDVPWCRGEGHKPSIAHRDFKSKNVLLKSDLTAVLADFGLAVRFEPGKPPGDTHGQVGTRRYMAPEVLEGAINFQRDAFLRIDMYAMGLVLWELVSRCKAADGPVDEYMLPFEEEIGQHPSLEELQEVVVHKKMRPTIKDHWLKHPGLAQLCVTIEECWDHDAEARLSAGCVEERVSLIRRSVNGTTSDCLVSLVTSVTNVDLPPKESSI
Protocol: MCF7 cells were stimulated with GDF15 (GDF15 from isolated mammalian source or recombinant derived from E. coli purchased from Abcam and Biovision). An assay was developed for monitoring the activity of GDF15 and to investigate the dynamics of receptor(s) such as QRFPR modulation by the ligand.
Serum-starved MCF7 cells were treated with GDF15, and an in situ PLA detection assay was developed to detect the interaction between ACTRIIB and QRFPR using antibodies from two different species, thus allowing the use of Duolink secondary detection reagents. The presence of the QRFPR-ACTRIIB complex was detected in the absence of GDF15 (see FIG. 3A, indicated by arrows).

[9] = molecular target: T5, Growth and differentiation factor 15 (GDF15) (UniProt Q99988 197-308, limits assumed); test: Fc-fusion pull-down, said to agree with the array results
T5 construct: Purchased GDF15 added to cells, pull-downs, peptide arrays and ELISA; also called MIC1
T5 sequence (looked up): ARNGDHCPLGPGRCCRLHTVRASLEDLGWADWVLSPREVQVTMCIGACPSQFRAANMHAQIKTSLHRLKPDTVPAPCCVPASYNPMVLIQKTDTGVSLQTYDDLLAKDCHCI
Protocol: 20 μg Fc fusion protein constructs were incubated with 0.5 μg GDF15 and protein-G bead with mixing for 6 hrs in +4 C in PBST+1% BSAs. Wash 6 times: 3 times PBST, change tubes, 2 washes PBST+220 mM NaCl. Last wash PBS. The beads were collected using a table-top centrifuge set at 500 g for 5 minutes between washes. Detection The material was loaded on a 4-12% gradient gel, run at 100 volt, transferred to PVDF membrane using a Turbo Tank blot system, blocked by PBS with 3% BSA 1 hr RT, and incubated with RD systems a monoclonal anti-GDF15 antibody overnight. A secondary antibody: mouse HRP 1:2000 was used for detection. The size of band was estimated by comparing with a seeblue2 protein ladder marker run in an adjacent lane.

ALFWEQHDLVYGDWTS (listed as Homo sapiens) [SEQ ID NO:18]
GDF15 binding to GST-fusion protein (GST-pulldown) [1]: Increased binding

EIKYDFLYEKEHICCLEEWTS (listed as Homo sapiens) [SEQ ID NO:7]
GDF15 binding to GST-fusion protein (GST-pulldown) [1]: Increased binding

GEKEYDDVTIK [synthetic peptide derived from extracellular domain 4 of QRFPR]
P518 induced ACTRIIB levels [2]: not affected | P518 induced ACTRIIB levels ([2]; listed as QRFPR receptor fragment): slight increase of ACTRIIB | GDF15-induced RAB11-QRFPR double positive endosomes [3]: substantially reduced | level of QRFPR detected at the cell surface [4]: restore the level of QRFPR detected at the cell surface to the same level as control cells | QRFPR at the cell surface [5]: reversed the removal of QRFPR from the cell surface

B1: endogenous GDF15 (in MCF-7 cells treated with Sulindac sulphide and in human tumour tissue arrays) (ligand, UniProt Q99988 197-308, looked up)
chain: ARNGDHCPLGPGRCCRLHTVRASLEDLGWADWVLSPREVQVTMCIGACPSQFRAANMHAQIKTSLHRLKPDTVPAPCCVPASYNPMVLIQKTDTGVSLQTYDDLLAKDCHCI
notes: Detected in complex with receptors by in situ PLA
binding result [6]: binds | binding result [7]: binds

B2
binding result [8]: binds

B3: AP1 (control protein): AAAQEADGARSAVVAAGGGSSGQVTSNGSIGRDPPAETQPQNPPAQPAPNAGGGGSGGGGSGGGGS-Fc mouse IgG1 (Fc fusion, not shown: a dimerising Fc or GST)
chain: AAAQEADGARSAVVAAGGGSSGQVTSNGSIGRDPPAETQPQNPPAQPAPNAGGGGSGGGGSGGGGS
notes: also called control polypeptide
binding result [9]: no binding
